Data from US20170096474A1 (published 2017).

T1: BoNT/B binding domain (HC), yeast displayed (Clostridium botulinum, UniProt P10844 858-1291)
T1 sequence: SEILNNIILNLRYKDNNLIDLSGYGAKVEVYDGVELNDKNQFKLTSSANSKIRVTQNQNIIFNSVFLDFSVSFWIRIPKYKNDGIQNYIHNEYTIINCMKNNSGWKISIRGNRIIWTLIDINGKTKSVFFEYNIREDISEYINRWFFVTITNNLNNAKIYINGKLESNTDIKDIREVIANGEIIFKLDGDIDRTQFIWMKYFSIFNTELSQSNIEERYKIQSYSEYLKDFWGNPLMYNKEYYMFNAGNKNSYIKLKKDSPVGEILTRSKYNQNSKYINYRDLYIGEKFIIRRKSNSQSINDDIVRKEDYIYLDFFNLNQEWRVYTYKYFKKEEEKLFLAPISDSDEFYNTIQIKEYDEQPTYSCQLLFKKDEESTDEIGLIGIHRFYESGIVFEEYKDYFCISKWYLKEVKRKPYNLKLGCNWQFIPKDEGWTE

T2: BoNT/B translocation domain (HN), yeast displayed (Clostridium botulinum, UniProt P10844 442-857)
T2 sequence: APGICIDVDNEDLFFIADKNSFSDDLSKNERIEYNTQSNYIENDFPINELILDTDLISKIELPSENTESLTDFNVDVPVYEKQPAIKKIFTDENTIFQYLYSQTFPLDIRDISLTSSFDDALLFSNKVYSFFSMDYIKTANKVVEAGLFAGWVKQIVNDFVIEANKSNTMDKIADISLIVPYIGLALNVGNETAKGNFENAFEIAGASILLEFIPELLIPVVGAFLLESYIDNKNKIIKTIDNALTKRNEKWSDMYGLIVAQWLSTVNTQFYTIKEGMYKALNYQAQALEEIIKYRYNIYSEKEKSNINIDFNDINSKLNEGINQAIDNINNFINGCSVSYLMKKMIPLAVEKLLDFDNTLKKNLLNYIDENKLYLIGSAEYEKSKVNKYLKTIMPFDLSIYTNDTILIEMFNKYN

T3: BoNT/B light chain (LC), yeast displayed (Clostridium botulinum, UniProt P10844 1-441)
T3 sequence: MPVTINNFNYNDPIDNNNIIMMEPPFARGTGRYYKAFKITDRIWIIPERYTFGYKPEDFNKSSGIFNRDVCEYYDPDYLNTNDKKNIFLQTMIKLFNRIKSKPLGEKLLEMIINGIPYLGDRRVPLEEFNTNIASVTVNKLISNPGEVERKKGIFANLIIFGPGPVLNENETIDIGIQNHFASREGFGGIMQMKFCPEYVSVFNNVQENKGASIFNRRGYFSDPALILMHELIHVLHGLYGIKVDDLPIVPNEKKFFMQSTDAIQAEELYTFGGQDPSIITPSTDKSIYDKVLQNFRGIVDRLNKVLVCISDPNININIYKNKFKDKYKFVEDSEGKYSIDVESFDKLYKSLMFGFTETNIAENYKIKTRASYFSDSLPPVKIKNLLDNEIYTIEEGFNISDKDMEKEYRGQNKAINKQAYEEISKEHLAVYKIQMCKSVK

B1: 2B30 scFv (scFv)
scFv: EVQLVESGGGVVQPGRSLRLSCAASGFTFRRNAIHWVRQAPGKGLEWVAVISYDGVNKYYAASVKGRFAISRDNAKNTLFLQMNSLRPEDSAIYYCARDVSEYGDYVGHFDYWGQGTLVTVSSGGGGSGGGGSGGGGSSYELMQLPSASGTPGQRVSISCSGSSSNIGSNPVNWYQQLPGTAPKLLIYSNNHRPSGVPDRFSGSKSGTSASLAISGLQSEDEADYYCAAWDGSLNGHVVFGGGTKLTVL
B2: 1B18 IgG (antibody, V domains shown)
VH: EVQLVQSGGGLVQPGGSRRLSCAASGFYFNAYWMTWVRQAPGKGLEWVANINLDGTEIYYLDSVKGRFTVSRDNVKNSVFLQMSSLRVEDTAVYFCARLEWGGRNGWVSPWGQGTLVTVSS
VL: DVVMTQSPSSVSASVGDRVTITCRASQSISSYLNWYQQRPGKAPKLLIFAASSLQSAVPSRFSGSGSGTDFTLTISSLQPEDFATYYCQQSYSTPPTFGQGTKVEIKR

Assays:
[1] = biological target: T1, BoNT/B binding domain (HC), yeast …; test: soluble scFv or IgG on yeast-displayed BoNT/B domains
[2] = biological target: T2, BoNT/B translocation domain (HN), yeast …; test: IgG/Fab on yeast-displayed toxin domain, flow cytometry
[3] = biological target: T1, BoNT/B binding domain (HC), yeast …; test: flow cytometry, mAb staining of yeast-displayed BoNT/B domains
[4] = biological target: T3, BoNT/B light chain (LC), yeast displayed; test: as above

Binder | binding result [1] | binding result [2] | binding result [3] | binding result [4]
B1 | binds |  |  | 
B2 |  | binds | no binding | no binding
